In patent US20230257469A1 (SINOCELLTECH, published 2023):
Where two headings read alike, the source gives them in different places.

Experiments:
[1] = target: T1, Recombinant human EGFR-His protein (human, UniProt P00533 25-645); test: ELISA as in Example 1.2.1
T1 construct: Bought protein; also called recombinant human EGFR protein; human EGFR protein; not shown: His tag

EGFR on tumor cells [2] = target: T2, EGFR on tumor cells (UniProt P00533 25-1210, limits assumed); test: cell-based or functional assay
EGFR on tumor cells [3] = target: T2, EGFR on tumor cells; test: cell-based or functional assay; remark: listed apart in the source
[4] = target: T1, Recombinant human EGFR-His protein; test: BLI (Fortebio OctetRED96e), biotinylated recombinant human EGFR protein, fit over several concentrations
EGFR on tumor cells [5] = target: T2, EGFR on tumor cells; test: cell-based or functional assay; remark: listed apart in the source
[6] = target: T1, Recombinant human EGFR-His protein; test: ELISA as in Example 1.2.1; EC50 counted on the coated EGFR-His concentration
EGFR on tumor cells [7] = target: T2, EGFR on tumor cells; test: cell-based or functional assay; remark: listed apart in the source
[8] = target: T1, Recombinant human EGFR-His protein; test: ELISA; EGFR-His coated at 1.37-3000 ng/mL, antibody at 13.89 nM; EC50 counted on the coated antigen concentration
[9] = target: T1, Recombinant human EGFR-His protein; test: ELISA of expressed phage-library clones on recombinant human EGFR protein

Work on SCT200 (antibody) yielded an EC50 [1] of 0.167 µg/mL, an EC50 (nM), inhibition of proliferation of Fadu cells, ligand: 1 µg /mL EREG (EGFR on tumor cells [2]) of 14.5 nM and an EC50 (nM), inhibition of proliferation of Fadu cells, ligand: None (EGFR on tumor cells [2]) of 0.129 nM. It also gave an EC50 (nM), inhibition of proliferation of MDA-MB-468 cells, ligand: 8 ng/mL HB-EGF (EGFR on tumor cells [2]) of 7.52 nM, an EC50 (nM), inhibition of proliferation of MDA-MB-468 cells, ligand: 1 µg/mL EREG (EGFR on tumor cells [2]) of 1.44 nM and an EC50 (nM), inhibition of proliferation of MDA-MB-468 cells, ligand: None (EGFR on tumor cells [2]) of 1.97 nM. For the same molecule, the Maximum inhibition rate (%), proliferation of Fadu cells, ligand: 4 ng/mL EGF (EGFR on tumor cells [2]) was 68.5%, the Maximum inhibition rate (%), proliferation of Fadu cells, ligand: 8 ng/mL HB-EGF (EGFR on tumor cells [2]) was 65% and the Maximum inhibition rate (%), proliferation of Fadu cells, ligand: 1 µg /mL EREG (EGFR on tumor cells [2]) was 48.3%. For the same molecule, the Maximum inhibition rate (%), proliferation of Fadu cells, ligand: None (EGFR on tumor cells [2]) was 49.7%, the Maximum inhibition rate (%), proliferation of MDA-MB-468 cells, ligand: 8 ng/mL HB-EGF (EGFR on tumor cells [2]) was 53.4% and the Maximum inhibition rate (%), proliferation of MDA-MB-468 cells, ligand: 200 ng/mL BTC (EGFR on tumor cells [2]) was 40.9%. The Maximum inhibition rate (%), proliferation of MDA-MB-468 cells, ligand: 1 µg/mL EREG (EGFR on tumor cells [2]) was 66.7% and the Maximum inhibition rate (%), proliferation of MDA-MB-468 cells, ligand: None (EGFR on tumor cells [2]) was 52.3%.

B1: humanized antibody EGFR-HPA8 (antibody, human IgG1, kappa, V domains shown)
VH: EVQLVQSGAEVKKPGATVKISCKVSGYTFTTYYTHWVKQAPGKGLEWIGWIYPGDVNTKYNEKFKGRVTLTADTSTDTAYMELSSLRSEDTAVYYCAREDPGSNYFDYWGQGTLVTVSS
VL: DIQMTQSPSSLSASVGDRVTITCRASENIYYSLAWYQQKPGKAPQLLIYITDGLADGVPSRFSGSGSGTDYTLKIDSLQPEDFATYYCKQSYDVPLTFGGGTKVEIKR
notes: IgG1/kappa; expressed in HEK-293 cells (fut8 knockout), ADCC-enhanced; also called EGFR-HPA8-Ae0
B1 was tested, and the “EC50 (nM), inhibition of proliferation of MDA-MB-468 cells, ligand: 8 ng/mL HB-EGF” value (EGFR on tumor cells [3]) was 2.64 nM, the “EC50 (nM), inhibition of proliferation of MDA-MB-468 cells, ligand: 1 µg/mL EREG” value (EGFR on tumor cells [3]) was 0.81 nM and the “EC50 (nM), inhibition of proliferation of MDA-MB-468 cells, ligand: None” value (EGFR on tumor cells [3]) was 0.9 nM. The Kd [4] was 6.9 pM, the koff [4] was 1.1e-05 s⁻¹ and the kon [4] was 1.59e+06 M⁻¹ s⁻¹. For the same molecule, the “EC50 for the induction of ADCC, recombinant CD16a reporter gene system (Jurkat-NFAT-Luc2p-CD16A effector cells, A431 target cells)” value (EGFR on tumor cells [5]) was 8 pM, the EC50 [6] was 0.117 µg/mL and the “EC50 (nM), inhibition of proliferation of Fadu cells, ligand: 1 µg /mL EREG” value (EGFR on tumor cells [7]) was 10.9 nM. For the same molecule, the “EC50 (nM), inhibition of proliferation of Fadu cells, ligand: None” value (EGFR on tumor cells [7]) was 0.126 nM.

B2: human-mouse chimeric antibody EGFR-mhPA8 (antibody, human IgG1, kappa, V domains shown)
VH: QVQLQQSGPDLVKPGASVRISCKVSGYTFTTYYTHWVKQRPGRGLEWIGWIYPGDVNTKYNEKFKGKATLTADKTSSTAYMQLSSLTSEDSAVYFCAREDPGSNYFDYWGQGTTLTVSS
VL: DIQMTQSPASLAASVGETVTITCRASENIYYSLAWYQQKEGKSPQLLIYITNGLADGVPSRFSGSGSGTQYSMKIDSMQPEDTATYFCKQSYDVPLTFGAGTKLEMKR
notes: Human IgG1 and kappa constant regions; also called murine antibody EGFR-mhPA8
With B2 the “EC50 of inhibition of proliferation of MDA-MB-468 cells (WST-8)” value (EGFR on tumor cells [5]) was 2.78 nM and the EC50 [8] was 0.129 µg/mL.

B3: EGFR-mhPA8 scFv antibody (scFv)
scFv: DIQMTQSPASLAASVGETVTITCRASENIYYSLAWYQQKEGKSPQLLIYITNGLADGVPSRFSGSGSGTQYSMKIDSMQPEDTATYFCKQSYDVPLTFGAGTKLEMKSSGGGGSGGGGGGSSRSSQVQLQQSGPDLVKPGASVRISCKVSGYTFTTYYTHWVKQRPGRGLEWIGWIYPGDVNTKYNEKFKGKATLTADKTSSTAYMQLSSLTSEDSAVYFCAREDPGSNYFDYWGQGTTLTVSS
notes: Screened as a clone of a phage display library in pComb3x; also called EGFR-mhPA8 scFv antibody clone; murine antibody scFv
B3: binds [9].
